This note sets out measurements from PMC5335568, “Molecular basis for the role of oncogenic histone mutations in modulating H3K36 methylation” (Scientific Reports, 2017).

For the experiment, the target named is T1, SET domain of human SETD2 (residue 1435–1711, encompassing the AWS, SET, and post-SET regions) (human, UniProt Q9BYW2 1435-1711).
T1 construct: SETD2, human, residues 1435–1711 (AWS, SET and post-SET regions), in the pET28-MHL vector; The His-tag was not removed for crystallization; A longer construct (1347–1711, 6xHis, Talon beads) was used for the histone methyltransferase assays; also called SETD2 SET domain; recombinant SET domain of SETD2; not shown: His6, N-terminal, kept
T1 sequence (looked up): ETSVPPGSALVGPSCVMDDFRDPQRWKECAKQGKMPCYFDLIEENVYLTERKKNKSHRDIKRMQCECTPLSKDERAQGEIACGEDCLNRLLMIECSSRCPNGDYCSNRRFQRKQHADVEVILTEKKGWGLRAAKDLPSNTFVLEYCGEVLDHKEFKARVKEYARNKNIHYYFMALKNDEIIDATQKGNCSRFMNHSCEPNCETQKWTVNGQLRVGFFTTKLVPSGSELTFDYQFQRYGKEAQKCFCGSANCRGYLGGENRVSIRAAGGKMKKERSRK
Put plainly: crystal structure; SETD2 (10 mg/ml) incubated with SAM and H3K36M peptide at a molar ratio of 1:10:10; sitting drop, 20 °C, 0.1 M KSCN, 24% PEG 2000 MME; two ternary complexes, with SAM (2.42 Å) and with SAH (2.4 Å). The conditions noted are these: both partners purified.

B1: H3K36M peptide (29-APATGGVMKPHRYRP-43) (peptide)
peptide: APATGGVMKPHRYRP
notes: histone H3 tail, residues 29–43, with K36M; also called H3K36M (29–43) peptide; source: synthetic peptide (Eurogentec for the crystals; Anaspec for the thermal shift assay)
With B1, the binding result is recorded as “binds”.
